In paper PMC13001094, “Cargo Recognition of Nesprin‑2 by the Dynein Adapter Bicaudal D2 for a Nuclear Positioning Pathway That Is Important for Brain Development” (Biochemistry, 2026):
Values belong to the molecule of their own block, whether it stands above or below them.

Legend:
[1] = target: Cytoplasmic dynein (bovine); assay: two-colour single-molecule assay (TIRF) of reconstituted complexes on microtubules; BicD2, instead of Nesprin-2, labelled with two different colours in DDBN complexes
[2] = target: T1, GST-tagged mouse Nesprin-2 (aa 6123–6421) (mouse, UniProt Q6ZWQ0 6123-6421); assay: pull-down; GST-tagged Nesprin-1/2 fragment held on glutathione column (not eluted), incubated 30 min with Ni-NTA-purified His6-BicD2-CTD diluted to 125 mM NaCl; washed twice; eluted with 10 mM glutathione, 50 mM Tris pH 8.0, 150 mM NaCl, 1 mM DTT; SDS-PAGE, Coomassie; band ratio normalised to WT = 1; settings: both partners purified
T1 construct: pGEX6p1 vector; codon-optimised insert from Genscript; also called Nesprin-2-SR52-SR53AD; minimal Nesprin-2 fragment; source: E. coli BL21(DE3)-RIL, purified on glutathione resin (not eluted before the pull-down); not shown: GST, N-terminal, kept
T1 sequence (looked up): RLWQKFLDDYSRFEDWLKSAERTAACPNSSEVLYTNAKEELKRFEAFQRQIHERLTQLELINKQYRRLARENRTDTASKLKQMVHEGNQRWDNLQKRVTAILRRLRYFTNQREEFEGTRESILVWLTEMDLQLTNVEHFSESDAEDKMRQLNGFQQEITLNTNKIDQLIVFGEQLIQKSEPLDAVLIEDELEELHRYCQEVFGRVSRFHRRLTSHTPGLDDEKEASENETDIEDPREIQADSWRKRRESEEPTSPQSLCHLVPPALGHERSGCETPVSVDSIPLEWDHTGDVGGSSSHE

[3] = target: T2, GST-tagged human Nesprin-1 (aa 7997–8328) (human, UniProt Q8NF91 7997-8328); assay: as above; settings: both partners purified
T2 construct: Nesprin-1, human, aa 7997-8328 cloned (the results speak of the domain aa 7998-8315: SR70, SR71 and a disordered domain with a LEWD motif); cloned into the same vector (pGEX6p1) as the Nesprin-2 fragment; also called Nesprin-1-SR70-SR71AD; Nesprin-1 fragment; source: E. coli BL21(DE3)-RIL, purified on glutathione resin (not eluted before the pull-down); not shown: GST, N-terminal, kept
T2 sequence (looked up): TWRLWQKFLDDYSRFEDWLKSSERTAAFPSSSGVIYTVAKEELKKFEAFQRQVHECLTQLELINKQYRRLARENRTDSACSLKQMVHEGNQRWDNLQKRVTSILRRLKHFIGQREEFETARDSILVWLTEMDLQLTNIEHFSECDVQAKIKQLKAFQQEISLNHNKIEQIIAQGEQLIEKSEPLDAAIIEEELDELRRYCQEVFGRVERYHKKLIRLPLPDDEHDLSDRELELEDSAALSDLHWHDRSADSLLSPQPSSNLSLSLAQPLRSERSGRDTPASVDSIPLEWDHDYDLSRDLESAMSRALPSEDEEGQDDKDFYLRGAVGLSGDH

[4] = target: T3, GST-tagged Nesprin-2 (aa 6123–6340) (mouse, UniProt Q6ZWQ0 6123-6340); assay: as above; settings: both partners purified
T3 construct: lacks the entire intrinsically disordered domain with the LEWD motif; deletion construct of m1; source: E. coli BL21(DE3)-RIL, purified on glutathione resin (not eluted before the pull-down); not shown: GST, N-terminal, kept
T3 sequence (looked up): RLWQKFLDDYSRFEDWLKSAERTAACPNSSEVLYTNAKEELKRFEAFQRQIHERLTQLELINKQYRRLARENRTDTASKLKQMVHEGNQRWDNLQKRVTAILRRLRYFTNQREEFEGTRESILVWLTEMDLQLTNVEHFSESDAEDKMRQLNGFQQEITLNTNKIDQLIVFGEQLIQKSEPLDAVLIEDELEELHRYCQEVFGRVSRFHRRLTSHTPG

[5] = target: T4, Nesprin-2 fragment of the purified minimal Nesprin-2/BicD2 complex used for SEC-MALS (mouse); assay: SEC-MALS; purified minimal Nesprin-2/BicD2 complex, GST tag on Nesprin-2; methods in the supplement; settings: both partners purified
T4 chain: T3 sequence (looked up)

Molecule: Full-length, wild-type human BicD2 (from UniProt Q8TD16-2 1-855) (natural protein)
- stoichiometry N (BicD2 per DDBN complex) [1]: 1

- binding result [2]: binds
- binding result [3]: binds
- binding result [4]: binds
B1: His6-tagged human BicD2-CTD (aa 715–804) (domain or fragment, UniProt Q8TD16-2 715-804, looked up)
chain: YENEKAMVTETMMKLRNELKALKEDAATFSSLRAMFATRCDEYITQLDEMQRQLAAAEDEKKTLNSLLRMAIQQKLALTQRLELLELDHE
notes: pET28a vector; source: E. coli LOBSTR BL21(DE3)-RIL, purified (Ni-NTA); not shown: His6, N-terminal, kept

- stoichiometry N [5]: 1 BicD2 per Nesprin-2 (2:2 complex)
B2: BicD2-CTD of the purified minimal Nesprin-2/BicD2 complex used for SEC-MALS (domain or fragment, human, UniProt Q8TD16-2 715-804, looked up)
chain: B1 chain
notes: printed protomer mass 10.9 kDa; also called BicD2 protomer (10.9 kDa)
